Laboratory results: the supplement of paper PMC10126150
± gives the standard deviation of the averaged measurements.

Test system: ATP
Test: switch fluorescence ratio, 500 uM ATP over buffer (Cy3 cluster intensity, sum of 5 cycles each) (fold (ratio)); higher = stronger signal-on switching upon ATP binding; sequences stand for … in TCGTCGGCAGCGTCAGATGTGTATAAGAGACAGTTTTTTTTTTTTTTTTTTTTTTTTT…TC
Settings: aptamer strand: ATP DNA aptamer (quencher-CACCTGGGGGAGTATTGCGGAGGAAGG + anchor), 100 nM annealed; ATP concentration: 500 uM
Procedure, shortened: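 Values give the fluorescence ratio for each switch-domain sequence, averaged from per-cluster ratios of summed target-cycle to summed buffer-cycle Cy3 intensity. The Cy3-labelled switching-strand clusters sat on a modified Illumina MiSeq flow-cell, were annealed to 100 nM quencher-labelled ATP aptamer, and were imaged in selection buffer, then after 15 min with 500 uM ATP at 22 °C. Five cycles ran with NaOH stripping and re-annealing between them, and clusters outside 100-1000 RFU were excluded.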
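Further: ATP exposure 15 min at 22 °C before imaging.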

Sequence	switch fluorescence ratio
TTTTTTACTG	0.991 ± 0.026
GAGTTTTCTA	0.9987 ± 0.0081
ATTCTTTTGC	1.03 ± 0.06
AAGTGAGTAG	1.004 ± 0.01
TAAAGGGTG	1.08 ± 0.037
TAAGGGGAGC	1.01 ± 0.03
TGCTTTAGGG	0.965 ± 0.029
TTTGTGTTTG	0.999 ± 0.016
AGGGTGCGGA	0.989 ± 0.036
CTGAAGTCTG	1.019 ± 0.0084
AAGAAAACTT	1.042 ± 0.0089
GAAGACAGTA	1.01 ± 0.013
AGGTTATGCA	1.01 ± 0.032
CCTGTTACTT	0.97 ± 0.04
CTCAGATGAT	0.988 ± 0.013
TGTTTGGGGG	1.01 ± 0.036
CCAGAGAGCC	1.04 ± 0.028
AGTGGATATT	1.02 ± 0.011
TAGCAATGTT	1.64 ± 0.52
TTTCAAATCT	1.026 ± 0.0019
CATTACAGCC	1.09 ± 0.028
TTTAATTGGT	1.02 ± 0.021
AAGTTAGGGG	0.9756 ± 0.0084
GTTTAACGGT	1 ± 0.012
ACTCGGGGTG	0.998 ± 0.025

Sequence	switch fluorescence ratio
GCGAAAGGAA	1.12 ± 0.14
AAAAAGGGTA	0.988 ± 0.05
GGGGGAAGGA	0.995 ± 0.036
CGTTGGGGTG	1.03 ± 0.063
CGGTTTTTTG	0.964 ± 0.014
AATATAAATA	1.019 ± 0.0072
GGCCGGATAG	1.03 ± 0.021
ACCGAATGTT	0.999 ± 0.022
ATAGAATGGT	0.9829 ± 0.00046
GGGATGCCAA	0.9794 ± 0.0018
TGTCGGTGTC	1.01 ± 0.028
ACTTAGGGGG	1.01 ± 0.024
TTTTTAGTAC	0.99 ± 0.013
AGTTTTAGCT	0.984 ± 0.029
TTACGAAAAG	1.08 ± 0.14
TCCGGGTATT	1.078 ± 0.0025
ATAGGCATCA	1.18 ± 0.3
TGGTTTTTGG	0.989 ± 0.018
TTTTTACCCG	1.01 ± 0.013
TACTTTAGGT	1.05 ± 0.019
AGAATGGAGA	1 ± 0.013
AGTTGGTCCT	1.01 ± 0.017
TTAGGATG	1.01 ± 0.0092
TGAGGGGAAG	0.986 ± 0.021
TGTTATGTGC	0.968 ± 0.036

Sequence	switch fluorescence ratio
AGGGGGGATC	1.01 ± 0.046
TGTTTTAGTT	1.01 ± 0.045
AGACGTCACT	1.77 ± 0.12
TTTGGTTTGC	0.992 ± 0.0039
GGGGTGACGT	1.02 ± 0.031
GATTTTGGGG	1.01 ± 0.029
AGTAGTACGG	1 ± 0.029
GAGTCCGCCT	1.6 ± 0.093
GGGCCAGGGC	1.02 ± 0.02
TTTTAGGGGC	1.13 ± 0.23
CGGGGGGGGT	1.01 ± 0.031
GGGCTAGGGA	0.972 ± 0.041
TTTGAAGTGG	1.03 ± 0.03
GATGAAAGAT	1.003 ± 0.0085
TCGAGGAAGT	0.999 ± 0.062
GGCACCTTAT	1.06 ± 0.034
TGCAGAGGAA	1.03 ± 0.018
TTTTAAAGAT	0.977 ± 0.021
ATAAGCTTGC	1.128 ± 0.0064
TGTATGGCGC	1.01 ± 0.058
GTTTGAACGG	0.993 ± 0.018
GGCATATGTT	1 ± 0.021
TTATAAGCTT	0.997 ± 0.021
GGGGCAGTAG	1.04 ± 0.046
GGCTTTGGAC	0.994 ± 0.055

Sequence	switch fluorescence ratio
GGGGCGACTA	1.03 ± 0.052
TATAAAGGTG	1.11 ± 0.14
TAGGATGGCT	0.959 ± 0.072
GATATATATG	1.01 ± 0.015
ATGGGGGTAA	1.01 ± 0.024
ATTTTTGACA	1.001 ± 0.0037
CAATTCTGTA	0.997 ± 0.028
AACGGGGGCC	1.03 ± 0.066
GGGGACGAGG	0.999 ± 0.028
GCCGGGACGG	0.965 ± 0.022
TTCGTATAGA	1 ± 0.041
CGTACGGCTC	1.058 ± 0.0038
CAGGTCTTGA	0.9888 ± 0.0014
TTCCGGAGGC	1.22 ± 0.28
CTGATAGTTG	1.04 ± 0.0013
CGCGCATGGT	1.14 ± 0.033
TTGTAAGTAG	0.979 ± 0.012
AAGATTGGGG	0.977 ± 0.019
CATGATTCA	0.998 ± 0.041
AGTAAGACAG	0.986 ± 0.08
GGAAAGTTGG	0.996 ± 0.012
TTTATGGAAT	0.998 ± 0.015
GAGGTTATTA	1 ± 0.066
TTGTATTCTT	1.04 ± 0.088
GGGTTAATAC	1.29 ± 0.069

Sequence	switch fluorescence ratio
AGAGTTTGTG	0.978 ± 0.015
AAGGGAAGGC	1 ± 0.018
TCGTATAGAG	1 ± 0.017
GCACCAGGGG	1.81 ± 0.81
CCATAAATAG	1.169 ± 0.0077
CGGCCGGGGT	1.035 ± 0.0058
CATCGGGGTT	1.01 ± 0.002
GTGACGAGTG	0.993 ± 0.047
CGAGGGTGCA	1.04 ± 0.021
ACGTTGTTTG	0.983 ± 0.02
GACCCGGGTT	1.11 ± 0.15
CTAACAGCGA	1.297 ± 0.0027
TAGCGTTTTT	0.97 ± 0.018
GGTTTGCAAG	0.986 ± 0.018
TAAGTTAGCC	1.049 ± 0.005
AGGGGAGTTC	1.04 ± 0.035
GTGTGAGATT	1.02 ± 0.024
CATTAGTGGG	0.988 ± 0.011
AGGGTTGGTA	1.01 ± 0.011
ATATGGTGTA	0.959 ± 0.021
GATGGGATGG	0.993 ± 0.039
CAGTCTACGA	1.03 ± 0.015
TAAAGGACTT	1.05 ± 0.087
GTGGGTTGGT	1.008 ± 0.0054
TGAAAACGGT	1 ± 0.035

Sequence	switch fluorescence ratio
GGCTGGGCAG	0.981 ± 0.035
AATGCAACAG	1.15 ± 0.056
CGGGTGTGTG	0.981 ± 0.019
AGGTCAGCTG	0.99 ± 0.018
TGAGACTGGT	0.999 ± 0.023
TTTTGTGG	1.01 ± 0.073
TTCGCAGGGA	1.074 ± 0.0042
ATGGGGGAAC	0.975 ± 0.011
TTTGTATGAG	1.03 ± 0.025
TGTTGGGACT	1.17 ± 0.24
CGGGGGGATC	1.02 ± 0.058
TAGGGGAAAT	0.994 ± 0.024
CTGGTGGATT	0.996 ± 0.024
TTGCAAGGTT	1.01 ± 0.017
ACGTATAGAA	1.159 ± 0.0097
AAGAACCCAG	1.05 ± 0.025
ATTATGGGT	0.9931 ± 0.0086
CCAGCCAATA	3.36 ± 0.12
ACTCATGACG	1.045 ± 0.0025
TGTATTCGGG	0.978 ± 0.01
CCCGGTTTAG	1.03 ± 0.0015
TTTAATAGGG	0.995 ± 0.036
AACTTTGCAG	1.016 ± 0.0052
GCTTAAGGGC	0.956 ± 0.033
TTTGCTACGG	1.05 ± 0.013

Sequence	switch fluorescence ratio
TTGAGGGGGC	1.01 ± 0.05
GAAATTTAGG	0.9938 ± 0.0046
TCGGGTTCCG	0.963 ± 0.019
GGTTCATGGT	0.989 ± 0.011
GGGACTTTAC	1.18 ± 0.038
GAGTAATCGG	1.01 ± 0.049
TTTAATTGTT	0.978 ± 0.034
CAATTCAGTT	0.991 ± 0.024
TTGGGGAAAC	0.99 ± 0.029
ATGGTGAGGA	0.995 ± 0.018
GGTTGGAATG	1.08 ± 0.18
CAGGTCGACG	1.05 ± 0.032
AGTAAACCAT	1.04 ± 0.03
GGTTTTTATG	1.004 ± 0.009
GTTTTAATTC	0.9628 ± 0.0036
ACCGGGGTTA	0.986 ± 0.033
CGTAGTTTTG	1.007 ± 0.0074
TTTTCATTCC	1.13 ± 0.15
ATCAGTTCCT	1.04 ± 0.013
ACGAGGGGGG	1.02 ± 0.02
ATATGTTGTC	0.894 ± 0.11
TGGGTACACG	1 ± 0.0019
TTCTGAATAT	1.01 ± 0.024
TTATTTGTTG	0.971 ± 0.05
AGCCGTTTTT	0.973 ± 0.038

Sequence	switch fluorescence ratio
TGGTTACGCT	1.028 ± 0.0084
ATGTCAGGAA	1.02 ± 0.041
AAGGCGGGAG	0.96 ± 0.032
GGCGCTTATT	0.963 ± 0.014
GTGATTGGCT	0.978 ± 0.016
CTATCTATTG	0.9923 ± 0.0014
GGGGGGCCCT	0.996 ± 0.028
GCGCATGGTA	1.02 ± 0.026
TCGCATCCTT	0.989 ± 0.017
CATAGCTGTG	1.01 ± 0.026
GGGGGTATAG	1.02 ± 0.022
GGGTTGGTTT	1.0207 ± 0.00021
ATTGCGGGCC	1.02 ± 0.047
CTTAGGGTTT	0.988 ± 0.019
CGAGTAGTGC	1.12 ± 0.033
TGCGGGTAAT	0.9985 ± 0.0046
AGTTCAAGCT	1.02 ± 0.007
GTGGCGCGGA	0.959 ± 0.013
AGGTTGGGTG	1.05 ± 0.013
ATCTCACTT	1.02 ± 0.03
TTATGCATCG	0.9768 ± 0.0047
TGTGGTTTGA	1.01 ± 0.043
TACTCAGTGG	1.01 ± 0.022
TCAGGTGGAG	1.03 ± 0.041
TGGGTGGGAC	1.04 ± 0.036
